Laboratory results taken from the supplement of paper PMC9112550, “Optimization of the antimicrobial peptide Bac7 by deep mutational scanning” (BMC Biology, 2022).

Tested on: Escherichia coli TOP10
Assay: shrunken log2 fold change of peptide-encoding DNA abundance (4.5 h post-induction vs induction); higher = less antimicrobial activity (less host growth inhibition)
Conditions: time post-induction: 4.5 h; library: site-saturation at positions 5, 18, 19, 20
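Also: peptides expressed intracellularly from a pBAD plasmid library in pooled LB shake-flask culture, induced with 0.3% L-arabinose, DNA abundance read by NGS, three biological replicates, DESeq2 with apeglm shrinkage.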

| Sequence | shrunken log2 fold change |
| --- | --- |
| RRIRTRPPRLPRPRPRPCCYPRP | -0.43 |
| RRIRQRPPRLPRPRPRPWICPRP | 0.117 |
| RRIRWRPPRLPRPRPRPGTSPRP | 0.304 |
| RRIRHRPPRLPRPRPRPFSLPRP | -0.277 |
| RRIRSRPPRLPRPRPRPQGVPRP | 0.225 |
| RRIRWRPPRLPRPRPRPDAYPRP | 0.309 |
| RRIRWRPPRLPRPRPRPKVLPRP | 0.155 |
| RRIRMRPPRLPRPRPRPVIAPRP | 0.125 |
| RRIRVRPPRLPRPRPRPGPQPRP | 0.245 |
| RRIRKRPPRLPRPRPRPNSYPRP | 0.141 |
| RRIRVRPPRLPRPRPRPTWMPRP | 0.0438 |
| RRIRVRPPRLPRPRPRPVDSPRP | 0.0147 |
| RRIRWRPPRLPRPRPRPMFNPRP | -0.156 |
| RRIRKRPPRLPRPRPRPAVHPRP | 0.112 |
| RRIRPRPPRLPRPRPRPTENPRP | 0.138 |
| RRIRHRPPRLPRPRPRPYYFPRP | -0.178 |
| RRIRRRPPRLPRPRPRPWAWPRP | 0.0216 |
| RRIRQRPPRLPRPRPRPAWIPRP | -0.0396 |
| RRIRERPPRLPRPRPRPPPDPRP | 0.505 |
| RRIRDRPPRLPRPRPRPMFAPRP | 0.199 |
| RRIRWRPPRLPRPRPRPNGTPRP | 1.67 |
| RRIRTRPPRLPRPRPRPMMNPRP | 0.0667 |
| RRIRMRPPRLPRPRPRPLVLPRP | 0.141 |
| RRIRNRPPRLPRPRPRPNQMPRP | -0.153 |
| RRIRQRPPRLPRPRPRPDEYPRP | 0.0131 |

| Sequence | shrunken log2 fold change |
| --- | --- |
| RRIRRRPPRLPRPRPRPTLPPRP | 0.482 |
| RRIRVRPPRLPRPRPRPECLPRP | 0.0466 |
| RRIRPRPPRLPRPRPRPFQGPRP | -0.0115 |
| RRIRPRPPRLPRPRPRPGVWPRP | 0.54 |
| RRIRNRPPRLPRPRPRPDFPPRP | -0.0345 |
| RRIRFRPPRLPRPRPRPACQPRP | -0.0497 |
| RRIRSRPPRLPRPRPRPVGMPRP | 0.12 |
| RRIRNRPPRLPRPRPRPFIWPRP | -0.741 |
| RRIRYRPPRLPRPRPRPHQYPRP | -0.402 |
| RRIRQRPPRLPRPRPRPMFWPRP | 0.0915 |
| RRIRVRPPRLPRPRPRPGECPRP | -0.145 |
| RRIRGRPPRLPRPRPRPKHFPRP | -0.121 |
| RRIRYRPPRLPRPRPRPAWAPRP | 0.253 |
| RRIRSRPPRLPRPRPRPRPPPRP | 1.13 |
| RRIRCRPPRLPRPRPRPPYRPRP | -0.0439 |
| RRIRKRPPRLPRPRPRPGNSPRP | -0.0266 |
| RRIRERPPRLPRPRPRPKRRPRP | 0.143 |
| RRIRGRPPRLPRPRPRPSQDPRP | 0.296 |
| RRIRRRPPRLPRPRPRPISYPRP | 0.0496 |
| RRIRKRPPRLPRPRPRPHKAPRP | -0.0179 |
| RRIRDRPPRLPRPRPRPVSHPRP | 0.00713 |
| RRIRMRPPRLPRPRPRPYGFPRP | -0.00952 |
| RRIRCRPPRLPRPRPRPAENPRP | 0.000461 |
| RRIRVRPPRLPRPRPRPDECPRP | -0.00624 |
| RRIRSRPPRLPRPRPRPCAQPRP | 0.00151 |

| Sequence | shrunken log2 fold change |
| --- | --- |
| RRIRERPPRLPRPRPRPCNLPRP | -0.904 |
| RRIRIRPPRLPRPRPRPCCSPRP | -1.1 |
| RRIRQRPPRLPRPRPRPDQGPRP | -0.0223 |
| RRIRGRPPRLPRPRPRPDCAPRP | 1.53 |
| RRIRRRPPRLPRPRPRPACWPRP | 0.626 |
| RRIRWRPPRLPRPRPRPRYKPRP | -0.104 |
| RRIRYRPPRLPRPRPRPEHTPRP | -0.303 |
| RRIRCRPPRLPRPRPRPGSPPRP | 0.169 |
| RRIRLRPPRLPRPRPRPSEPPRP | -0.114 |
| RRIRTRPPRLPRPRPRPQQMPRP | -0.0941 |
| RRIRFRPPRLPRPRPRPMFGPRP | 0.312 |
| RRIRRRPPRLPRPRPRPMMHPRP | 0.101 |
| RRIRWRPPRLPRPRPRPQFNPRP | -0.498 |
| RRIRSRPPRLPRPRPRPEYHPRP | -0.282 |
| RRIRVRPPRLPRPRPRPYNNPRP | -1.16 |
| RRIRARPPRLPRPRPRPRHVPRP | 0.162 |
| RRIRTRPPRLPRPRPRPTSKPRP | -0.343 |
| RRIRPRPPRLPRPRPRPEEFPRP | -0.0108 |
| RRIRNRPPRLPRPRPRPSSAPRP | -0.0956 |
| RRIRNRPPRLPRPRPRPNPNPRP | 0.0656 |
| RRIRRRPPRLPRPRPRPPSQPRP | 0.46 |
| RRIRNRPPRLPRPRPRPQICPRP | -0.0199 |
| RRIRRRPPRLPRPRPRPKIMPRP | -0.0825 |
| RRIRGRPPRLPRPRPRPSNCPRP | 0.0376 |
| RRIRERPPRLPRPRPRPCWFPRP | -0.0254 |

| Sequence | shrunken log2 fold change |
| --- | --- |
| RRIRLRPPRLPRPRPRPAVLPRP | -0.0831 |
| RRIRLRPPRLPRPRPRPGGWPRP | 0.71 |
| RRIRHRPPRLPRPRPRPRSCPRP | -0.0982 |
| RRIRCRPPRLPRPRPRPMYEPRP | -0.264 |
| RRIRIRPPRLPRPRPRPFCLPRP | -0.739 |
| RRIRFRPPRLPRPRPRPMRRPRP | 0.542 |
| RRIRSRPPRLPRPRPRPACDPRP | 0.119 |
| RRIRHRPPRLPRPRPRPCVHPRP | -0.00151 |
| RRIRQRPPRLPRPRPRPEGTPRP | 0.231 |
| RRIRCRPPRLPRPRPRPAWYPRP | -0.0055 |
| RRIRIRPPRLPRPRPRPGITPRP | -0.182 |
| RRIRRRPPRLPRPRPRPFNPPRP | -0.277 |
| RRIRMRPPRLPRPRPRPQGLPRP | 0.0389 |
| RRIRFRPPRLPRPRPRPLDSPRP | -0.0455 |
| RRIRVRPPRLPRPRPRPAIYPRP | -0.294 |
| RRIRRRPPRLPRPRPRPCMHPRP | 0.105 |
| RRIRVRPPRLPRPRPRPEMLPRP | 0.0987 |
| RRIRLRPPRLPRPRPRPIRPPRP | -0.113 |
| RRIRIRPPRLPRPRPRPSLRPRP | -0.72 |
| RRIRNRPPRLPRPRPRPWNIPRP | -0.0117 |
| RRIRDRPPRLPRPRPRPIARPRP | 0.199 |
| RRIRMRPPRLPRPRPRPWMFPRP | 0.00324 |
| RRIRQRPPRLPRPRPRPMRPPRP | 0.968 |
| RRIRERPPRLPRPRPRPSVPPRP | -0.235 |
| RRIRNRPPRLPRPRPRPKWWPRP | 0.0325 |

| Sequence | shrunken log2 fold change |
| --- | --- |
| RRIRQRPPRLPRPRPRPSMGPRP | -0.163 |
| RRIRMRPPRLPRPRPRPGRVPRP | 0.919 |
| RRIRFRPPRLPRPRPRPNQPPRP | -0.136 |
| RRIRCRPPRLPRPRPRPKLKPRP | -0.16 |
| RRIRRRPPRLPRPRPRPQKFPRP | -0.0996 |
| RRIRFRPPRLPRPRPRPFQVPRP | -0.309 |
| RRIRVRPPRLPRPRPRPCMCPRP | 0.00286 |
| RRIRVRPPRLPRPRPRPSCTPRP | -0.175 |
| RRIRCRPPRLPRPRPRPHFVPRP | -0.23 |
| RRIRGRPPRLPRPRPRPLHIPRP | 0.105 |
| RRIRQRPPRLPRPRPRPMADPRP | 0.207 |
| RRIRLRPPRLPRPRPRPLWMPRP | -0.00586 |
| RRIRIRPPRLPRPRPRPDLAPRP | -0.169 |
| RRIRDRPPRLPRPRPRPRKQPRP | -0.0319 |
| RRIRWRPPRLPRPRPRPDCIPRP | 0.0529 |
| RRIRARPPRLPRPRPRPMLRPRP | 0.155 |
| RRIRLRPPRLPRPRPRPTLFPRP | 0.0945 |
| RRIRMRPPRLPRPRPRPFMNPRP | -0.196 |
| RRIRQRPPRLPRPRPRPVMVPRP | 0.11 |
| RRIRGRPPRLPRPRPRPQGWPRP | 1.04 |
| RRIRCRPPRLPRPRPRPYFYPRP | -1 |
| RRIRTRPPRLPRPRPRPPIGPRP | 0.0445 |
| RRIRNRPPRLPRPRPRPPPKPRP | 1.5 |
| RRIRMRPPRLPRPRPRPAFEPRP | 0.763 |
| RRIRERPPRLPRPRPRPEFNPRP | -0.633 |
